{"source": "the supplement of paper PMC12042874", "note": "± gives the uncertainty stated by the source."}
{"test": "amyloid nucleation score (Sup35N fusion, yeast selection) (log enrichment); library NNK2; higher = more nucleation; inactive = no reads after selection", "summary_of_the_method": "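Growth for 7 days at 30°C on medium lacking adenine and uracil followed a 24-hour induction with 100 μM copper sulfate of psi-negative yeast expressing peptides of 20 random codons fused to Sup35N. Input and output plasmid inserts were sequenced with Illumina, and sequences with under 100 input reads were excluded. Nucleation score is the DiMSum log enrichment of output over input reads, centred on the mode score of non-aggregating sequences.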"}
{"substance": "RMLGALFGMHVNYRAVSELF", "amyloid nucleation score": "1.49 ± 0.12"}
{"substance": "RMLGFD", "amyloid nucleation score": "-0.147 ± 1.1"}
{"substance": "RMMVGALAGFMV", "amyloid nucleation score": "0.578 ± 0.35"}
{"substance": "RMPFHVFRIKFHFLLRVPIQ", "amyloid nucleation score": "0.851 ± 0.52"}
{"substance": "RMRQASEAKSLGGPIGRQGL", "amyloid nucleation score": "1.2 ± 0.15"}
{"substance": "RNALLCADLTPLAPLNLFCD", "amyloid nucleation score": "-0.636 ± 0.76"}
{"substance": "RNFFPHGFWSLQTKYNVLFM", "amyloid nucleation score": "5.684 ± 0.05"}
{"substance": "RNFMVDRSGWQSKYVTHSLE", "amyloid nucleation score": "-0.324 ± 0.6"}
{"substance": "RNGLRTLEQRRSKSVWEMSW", "amyloid nucleation score": "0.969 ± 0.16"}
{"substance": "RNILPLARDSVVFNDCYDSG", "amyloid nucleation score": "0.545 ± 0.33"}
{"substance": "RNIQYVAMEVCDFKFPVDGV", "amyloid nucleation score": "0.223 ± 0.26"}
{"substance": "RNLDFIA", "amyloid nucleation score": "3.33 ± 0.068"}
{"substance": "RNLGSCY", "amyloid nucleation score": "-0.08 ± 0.46"}
{"substance": "RNRAENV", "amyloid nucleation score": "-0.36 ± 0.76"}
{"substance": "RNSMGTFSRWYPIMY", "amyloid nucleation score": "-0.54 ± 0.48"}
{"substance": "RNSSVGT", "amyloid nucleation score": "inactive"}
{"substance": "RNSYALNINEM", "amyloid nucleation score": "-0.4 ± 0.38"}
{"substance": "RNTYRRGGLPFVAYNRTSVG", "amyloid nucleation score": "0.125 ± 0.28"}
{"substance": "RNWWGLSVYNSIYWCVMSRD", "amyloid nucleation score": "4.835 ± 0.043"}
{"substance": "RPKSKADYGWC", "amyloid nucleation score": "-0.119 ± 0.45"}
{"substance": "RPNDMHTT", "amyloid nucleation score": "-0.064 ± 0.26"}
{"substance": "RPRVVTQLFMYLNDCRGSPP", "amyloid nucleation score": "6.693 ± 0.055"}
{"substance": "RPSNKT", "amyloid nucleation score": "0.761 ± 0.56"}
{"substance": "RPVSSFVSASGSRSGLQSLK", "amyloid nucleation score": "0.085 ± 0.8"}
{"substance": "RQRVMHAHHCLLYLMVKHFI", "amyloid nucleation score": "-0.675 ± 1.1"}
{"substance": "RQTGRLDFRTISRVKVDVIV", "amyloid nucleation score": "1.92 ± 0.28"}
{"substance": "RQYFNVLDCWGIGVFGHKG", "amyloid nucleation score": "1.34 ± 0.3"}
{"substance": "RRAGNIVLECSG", "amyloid nucleation score": "3.68 ± 0.11"}
{"substance": "RRAVLVSPGVVNQGISKHQG", "amyloid nucleation score": "0.632 ± 0.25"}
{"substance": "RRFEPKVRKKHQGLFLWYSV", "amyloid nucleation score": "0.028 ± 0.25"}
{"substance": "RRFVLARVPNNKCPQTIRLD", "amyloid nucleation score": "0.733 ± 0.48"}
{"substance": "RRHSNRICLQLWNHLGKRCR", "amyloid nucleation score": "0.587 ± 0.29"}
{"substance": "RRIFYHEYHMRDSIH", "amyloid nucleation score": "1.7 ± 0.1"}
{"substance": "RRLLGRLFLGTTSKLYVGDL", "amyloid nucleation score": "-0.147 ± 0.26"}
{"substance": "RRRCYHTVSKFRWNIQSAVT", "amyloid nucleation score": "-0.337 ± 1"}
{"substance": "RRWVG", "amyloid nucleation score": "0.015 ± 0.45"}
{"substance": "RSARDYSVLKSRILSSAGLG", "amyloid nucleation score": "1.32 ± 0.39"}
{"substance": "RSAYNY", "amyloid nucleation score": "-0.844 ± 0.4"}
{"substance": "RSCYNFGKGLCVFMTLARLW", "amyloid nucleation score": "-0.82 ± 0.48"}
{"substance": "RSELLRRKGILMYLLPGGGY", "amyloid nucleation score": "0.009 ± 0.61"}
{"substance": "RSHAT", "amyloid nucleation score": "0.579 ± 0.33"}
{"substance": "RSKLFVISNGRRMHVVLSST", "amyloid nucleation score": "0.605 ± 0.51"}
{"substance": "RSKLNIDV", "amyloid nucleation score": "1.95 ± 0.14"}
{"substance": "RSKMNRLMVLRSRVRWWYNE", "amyloid nucleation score": "0.485 ± 0.32"}
{"substance": "RSLGTRAFAVRFRTSCWINV", "amyloid nucleation score": "-0.317 ± 0.46"}
{"substance": "RSLSNMCN", "amyloid nucleation score": "-1.24 ± 1"}
{"substance": "RSLVDLMRGFDIV", "amyloid nucleation score": "5.62 ± 0.062"}
{"substance": "RSMISRAIYWQSWSTREERT", "amyloid nucleation score": "1.86 ± 0.093"}
{"substance": "RSNFIQDSLSYFDILAIRRG", "amyloid nucleation score": "inactive"}
{"substance": "RSQTSWLKDLWQRSLTSDCS", "amyloid nucleation score": "4.62 ± 0.059"}
{"substance": "RSRAQQHSQHNTVDITPTRS", "amyloid nucleation score": "0.194 ± 0.32"}
{"substance": "RSRDRGRCWFMMSRGMGGVA", "amyloid nucleation score": "0.483 ± 0.56"}
{"substance": "RSRSYHADWACTVVCLCYS", "amyloid nucleation score": "4.24 ± 0.066"}
{"substance": "RSSGLIGLGWKQI", "amyloid nucleation score": "-1.67 ± 0.75"}
{"substance": "RSTTM", "amyloid nucleation score": "inactive"}
{"substance": "RSVLWSSMVGV", "amyloid nucleation score": "1.39 ± 0.44"}
{"substance": "RSYIRFGNYVHYDQLWLFGG", "amyloid nucleation score": "3.04 ± 0.12"}
{"substance": "RSYLVFYTRYLTFNGPSTKF", "amyloid nucleation score": "7.79 ± 0.08"}
{"substance": "RTEEQ", "amyloid nucleation score": "-0.254 ± 0.54"}
{"substance": "RTFVVNQVEWDVYIWRSGSV", "amyloid nucleation score": "0.004 ± 0.56"}
{"substance": "RTFYFYGRHR", "amyloid nucleation score": "-1.11 ± 1.1"}
{"substance": "RTGAMPSR", "amyloid nucleation score": "0.518 ± 0.51"}
{"substance": "RTHPTCSVCVKLYPLGTPRR", "amyloid nucleation score": "2.38 ± 0.13"}
{"substance": "RTMSNGSDVCFNNGMFHYLN", "amyloid nucleation score": "-1.04 ± 0.76"}
{"substance": "RTPPISMGKHNFVYVSSVCG", "amyloid nucleation score": "-1.1 ± 0.36"}
{"substance": "RTRLYIDQRRKAFYPGLGFS", "amyloid nucleation score": "0.347 ± 0.55"}
{"substance": "RTRRSSTGGRNEASGNRSAG", "amyloid nucleation score": "2.87 ± 0.13"}
{"substance": "RTSAPVLRYSVCLNAKYSLG", "amyloid nucleation score": "0.683 ± 0.21"}
{"substance": "RTSHSLRWMVRPYRRADPMR", "amyloid nucleation score": "0.691 ± 0.54"}
{"substance": "RTWSIFIASVKYVKV", "amyloid nucleation score": "-0.24 ± 0.74"}
{"substance": "RVCPVSG", "amyloid nucleation score": "-0.068 ± 0.79"}
{"substance": "RVDVLIE", "amyloid nucleation score": "9.82 ± 0.048"}
{"substance": "RVESDTDVIVQIMQWRGVFL", "amyloid nucleation score": "0.334 ± 0.28"}
{"substance": "RVFSLDWVIERMSVEFHSWG", "amyloid nucleation score": "inactive"}
{"substance": "RVGTLKTISFHSNLNSNKIR", "amyloid nucleation score": "-0.614 ± 0.33"}
{"substance": "RVIILNTNDGSVEDMYVESQ", "amyloid nucleation score": "3.98 ± 0.049"}
{"substance": "RVIVGRYWQSTDVVYYIWNF", "amyloid nucleation score": "-1.59 ± 0.76"}
{"substance": "RVKLACTRLCWLSADFDGNL", "amyloid nucleation score": "4.04 ± 0.079"}
{"substance": "RVLRLVSVLLFDVILSVE", "amyloid nucleation score": "4.85 ± 0.085"}
{"substance": "RVLSGRLTTNVDARGCELDR", "amyloid nucleation score": "1.3 ± 0.29"}
{"substance": "RVLVSS", "amyloid nucleation score": "0.713 ± 0.8"}
{"substance": "RVPGRDALSIASWLQSTGQV", "amyloid nucleation score": "1.03 ± 0.21"}
{"substance": "RVPIWRANIGKGSSIMPIFC", "amyloid nucleation score": "0.009 ± 0.76"}
{"substance": "RVRDYSYGGSQRLGGYMLG", "amyloid nucleation score": "-0.64 ± 0.61"}
{"substance": "RVSMFKDLKYNGSYSWNSHG", "amyloid nucleation score": "-1.22 ± 0.41"}
{"substance": "RVSTVFSLKTRRCEFLFQCV", "amyloid nucleation score": "0.24 ± 0.35"}
{"substance": "RVTHAFCSSINGTNANYPRR", "amyloid nucleation score": "2.54 ± 0.097"}
